Measured values as given in article PMC10397247.

Experiments:
Assay in all cases: two-hybrid library CCmax;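 further: natural log of median RNA to DNA barcode read ratio; higher means stronger binding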
Conditions in all cases: mean of both orientations
Core_NNNI-es_KKEK = target: T1, Core_NNNI-es_KKEK
T1 chain: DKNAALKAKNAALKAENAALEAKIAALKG

Core_INII-es_KKEK = target: T2, Core_INII-es_KKEK
T2 chain: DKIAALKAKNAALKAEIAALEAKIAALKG

Core_NIII-es_KKKE = target: T3, Core_NIII-es_KKKE
T3 chain: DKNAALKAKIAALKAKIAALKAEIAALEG

**Q.** With DENAALEAENAALEAKNAALKAEIAALEG [Core_NNNI-es_EEKE] as the binder, how does the interaction score (Core_NNNI-es_KKEK) read?
**A.** 2.2

**Q.** How did the interaction score (Core_INII-es_KKEK) turn out when DEIAALEAENAALEAKIAALKAEIAALEG [Core_INII-es_EEKE] was run?
**A.** 2.11

**Q.** With DENAALEAEIAALEAEIAALEAKIAALKG [Core_NIII-es_EEEK] as the binder, how does the interaction score (Core_NIII-es_KKKE) read?
**A.** 2.14
